Measured values reported in the Human Domainome abundance scans (Beltran et al. 2025).
± gives the uncertainty stated by the source.

B1: Mineralocorticoid receptor, residues 600 to 675; numbered along this chain, P08235 (parent)
chain: SKICLVCGDEASGCHYGVVTCGSCKVFFKRAVEGQHNYLCAGRNDCIIDKIRRKNCPACRLQKCLQAGMNLGARKS
B2: Membrane-associated guanylate kinase, WW and PDZ domain-containing protein 1, residues 352 to 401; numbered along this chain, Q96QZ7 (parent)
chain: TEELDSELELPAGWEKIEDPVYGIYYVDHINRKTQYENPVLEAKRKKQLE

Variants of: B1
Assay: abundance fitness (aPCA) (normalised: wild type 0, dead -1); higher = more abundant; growth selection in yeast, the domain comes from the species named
Conditions: Homo sapiens

Abundance fitness of substitutions, site by site:
S1: H 0.002 ± 0.26 | M -0.06 ± 0.074 | W -0.144 ± 0.073 | P -0.13 ± 0.09 | K -0.123 ± 0.1 | A -0.136 ± 0.063 | D -0.406 ± 0.32 | I -0.035 ± 0.11 | F -0.048 ± 0.1 | G -0.087 ± 0.06 | V 0.018 ± 0.056 | Y 0 ± 0.089 | L -0.099 ± 0.062 | R -0.099 ± 0.052
K2: D -0.062 ± 0.063 | Q 0.118 ± 0.067 | G -0.163 ± 0.042 | E -0.072 ± 0.057 | S -0.161 ± 0.051 | F -0.267 ± 0.18 | V -0.142 ± 0.043 | W -0.246 ± 0.063 | I -0.041 ± 0.065 | N 0.002 ± 0.061 | R -0.083 ± 0.041 | A -0.066 ± 0.048 | H -0.109 ± 0.078 | L -0.099 ± 0.049 | Y -0.085 ± 0.098 | M -0.075 ± 0.055 | T -0.049 ± 0.06
V6: L -0.375 ± 0.047 | S -0.512 ± 0.072 | I 0.008 ± 0.078 | D -0.765 ± 0.45 | M -0.416 ± 0.09 | P -0.704 ± 0.13 | T -0.148 ± 0.06 | C -0.228 ± 0.071 | A -0.051 ± 0.043 | G -0.726 ± 0.093 | R -0.971 ± 0.16 | K -0.83 ± 0.23 | Q -0.803 ± 0.28 | Y -0.489 ± 0.13 | N -0.706 ± 0.45
C4: M -0.96 ± 0.19 | G -0.842 ± 0.1 | Y -0.99 ± 0.42 | E -0.727 ± 0.11 | Q -0.812 ± 0.19 | W -1.06 ± 0.27 | N -1.04 ± 0.37 | I -0.808 ± 0.2 | A -1.37 ± 0.35 | F -0.753 ± 0.26 | T -0.837 ± 0.12 | H -0.77 ± 0.21 | P -0.986 ± 0.27 | L -0.768 ± 0.1 | D -0.549 ± 0.15 | K -0.87 ± 0.23 | V -0.989 ± 0.24 | S -0.851 ± 0.14
L5: I -0.089 ± 0.08 | E -0.071 ± 0.089 | R -0.091 ± 0.042 | S -0.075 ± 0.04 | N -0.068 ± 0.078 | W -0.106 ± 0.052 | Y -0.076 ± 0.071 | M -0.133 ± 0.058 | D -0.168 ± 0.082 | F -0.027 ± 0.075 | H -0.239 ± 0.07 | A -0.05 ± 0.041 | C -0.069 ± 0.057 | P -0.075 ± 0.06 | V -0.209 ± 0.041 | K 0.057 ± 0.067 | T -0.037 ± 0.044 | Q 0.05 ± 0.069
G8: E -0.075 ± 0.087 | I -0.605 ± 0.25 | D -0.085 ± 0.09 | F -0.202 ± 0.096 | M -0.062 ± 0.07 | Q -0.095 ± 0.061 | N -0.235 ± 0.14 | H -0.273 ± 0.16 | A 0.058 ± 0.048 | K -0.019 ± 0.11 | R -0.043 ± 0.039 | L -0.08 ± 0.045 | T -0.079 ± 0.072 | S -0.057 ± 0.055 | V -0.621 ± 0.078 | C -0.233 ± 0.084
I3: T -0.164 ± 0.056 | M -0.192 ± 0.054 | H -0.11 ± 0.066 | L -0.239 ± 0.043 | P -0.453 ± 0.06 | S -0.128 ± 0.04 | K -0.196 ± 0.057 | N -0.022 ± 0.072 | F -0.04 ± 0.12 | V -0.166 ± 0.041 | C -0.172 ± 0.073 | D -0.062 ± 0.085 | Q -0.152 ± 0.05 | R -0.225 ± 0.035 | W -0.315 ± 0.053 | A -0.157 ± 0.044 | G -0.162 ± 0.04 | E -0.146 ± 0.055 | Y -0.027 ± 0.071
C7: A -0.933 ± 0.2 | S -0.96 ± 0.27 | T -0.999 ± 0.42 | R -0.886 ± 0.18 | V -0.998 ± 0.26 | Y -0.805 ± 0.26 | H -0.802 ± 0.46 | L -1.15 ± 0.49 | W -0.765 ± 0.2

Variants of: B2
Assay: as above
Conditions: Homo sapiens

Abundance fitness: each site, then its substitutions
N38: Y -0.365 ± 0.097 | W -0.138 ± 0.072 | Q -0.387 ± 0.1 | T -0.341 ± 0.068 | S -0.066 ± 0.065 | R -0.079 ± 0.04
K46: Y -0.169 ± 0.094 | D 0.012 ± 0.052 | L -0.133 ± 0.064 | A -0.063 ± 0.058 | W -0.331 ± 0.056 | C -0.103 ± 0.046 | V -0.065 ± 0.041 | N -0.41 ± 0.11 | M -0.328 ± 0.088 | E -0.256 ± 0.072 | F -0.27 ± 0.1 | G -0.089 ± 0.038 | T -0.333 ± 0.11 | R -0.094 ± 0.056 | P -0.044 ± 0.087 | S -0.093 ± 0.041 | H 0.173 ± 0.1 | Q -0.026 ± 0.064
V40: Q -0.385 ± 0.069 | P -0.404 ± 0.099 | K -0.055 ± 0.041 | F -0.385 ± 0.1 | A 0.068 ± 0.05 | E -0.25 ± 0.073 | I -0.197 ± 0.087 | L -0.016 ± 0.038 | N -0.038 ± 0.1 | T 0.006 ± 0.08 | Y -0.237 ± 0.086 | W -0.177 ± 0.053 | G -0.047 ± 0.053 | S -0.026 ± 0.061 | R -0.099 ± 0.054 | M -0.033 ± 0.05
R45: N -0.363 ± 0.073 | Y -0.266 ± 0.045 | G -0.113 ± 0.039 | M -0.159 ± 0.083 | L -0.302 ± 0.066 | P -0.056 ± 0.059 | T 0.048 ± 0.075 | S -0.067 ± 0.05 | H -0.564 ± 0.19 | V -0.162 ± 0.052 | K 0.02 ± 0.062 | C -0.241 ± 0.082 | Q -0.032 ± 0.069 | D -0.171 ± 0.072 | W -0.352 ± 0.048 | A -0.193 ± 0.061 | F -0.248 ± 0.064 | E 0.073 ± 0.047
P39: K -0.857 ± 0.15 | M -0.714 ± 0.086 | V -0.699 ± 0.062 | L -0.615 ± 0.048 | E -0.466 ± 0.057 | A -0.379 ± 0.042 | Y -1.21 ± 0.23 | H -1.3 ± 0.28 | R -0.648 ± 0.046 | G -0.393 ± 0.057 | F -1 ± 0.17 | Q -0.447 ± 0.087 | W -0.894 ± 0.072 | S -0.597 ± 0.069 | I -1.04 ± 0.23 | D -0.314 ± 0.098 | C -0.817 ± 0.12
L49: K -0.002 ± 0.083 | W -0.239 ± 0.043 | T -0.002 ± 0.05 | A -0.003 ± 0.046 | V -0.138 ± 0.063 | M 0.154 ± 0.065 | F -0.328 ± 0.12 | N -0.222 ± 0.24 | P -0.049 ± 0.064 | I -0.232 ± 0.14 | H -0.073 ± 0.11 | Y -0.048 ± 0.089 | E 0.132 ± 0.066
K47: L -0.008 ± 0.053 | S 0.016 ± 0.059 | N -0.318 ± 0.12 | Q 0.013 ± 0.059 | G -0.169 ± 0.057 | T -0.077 ± 0.044 | D -0.154 ± 0.088 | H -0.172 ± 0.059 | E -0.25 ± 0.094 | F -0.239 ± 0.14 | R -0.163 ± 0.043 | P -0.121 ± 0.08 | Y -0.207 ± 0.06 | M -0.102 ± 0.049 | W -0.414 ± 0.072 | A -0.075 ± 0.076 | C -0.232 ± 0.085
E50: L -0.223 ± 0.18 | C 0.327 ± 0.43 | H -0.699 ± 0.28 | R -0.841 ± 0.23 | D 0.006 ± 0.1 | T -0.174 ± 0.046 | V -0.332 ± 0.11 | W 0.058 ± 0.38 | S -0.321 ± 0.11 | I -0.273 ± 0.33 | K -0.264 ± 0.22 | A 0.032 ± 0.064 | Q -0.438 ± 0.18
K44: S -0.106 ± 0.05 | R -0.057 ± 0.045 | H -0.196 ± 0.15 | G -0.068 ± 0.051 | M -0.064 ± 0.07 | Y -0.041 ± 0.068 | W -0.237 ± 0.046 | T -0.2 ± 0.07 | A -0.079 ± 0.051 | I -0.438 ± 0.13 | F -0.186 ± 0.072 | L -0.061 ± 0.039 | D -0.106 ± 0.082 | V -0.286 ± 0.062 | E 0.019 ± 0.043 | Q -0.086 ± 0.077 | C -0.03 ± 0.078 | P -0.27 ± 0.065
E42: W -0.26 ± 0.051 | H -0.599 ± 0.17 | D -0.192 ± 0.062 | R -0.565 ± 0.053 | G -0.137 ± 0.038 | K -0.505 ± 0.091 | V -0.149 ± 0.043 | Q -0.222 ± 0.081 | C -0.297 ± 0.046 | T -0.086 ± 0.042 | A -0.225 ± 0.05 | L -0.231 ± 0.048 | I -0.117 ± 0.087 | P -0.361 ± 0.05 | Y -0.366 ± 0.055 | N -0.285 ± 0.069 | F -0.535 ± 0.13
Q48: R -0.227 ± 0.052 | H -0.1 ± 0.089 | M 0.001 ± 0.042 | S -0.035 ± 0.049 | P -0.528 ± 0.077 | K -0.035 ± 0.055 | I 0.188 ± 0.092 | T -0.17 ± 0.051 | A -0.045 ± 0.044 | C -0.134 ± 0.061 | V -0.115 ± 0.048 | N 0.107 ± 0.047 | W -0.26 ± 0.075 | F -0.339 ± 0.13 | D 0.017 ± 0.073 | L -0.279 ± 0.055 | G -0.221 ± 0.047 | E 0.262 ± 0.077 | Y -0.152 ± 0.052
A43: I -0.092 ± 0.088 | H -0.161 ± 0.087 | C -0.246 ± 0.078 | Q -0.024 ± 0.047 | G -0.137 ± 0.05 | V -0.131 ± 0.042 | P -0.184 ± 0.079 | M -0.044 ± 0.08 | N -0.014 ± 0.047 | E -0.011 ± 0.053 | T 0.045 ± 0.064 | R -0.11 ± 0.042 | Y -0.33 ± 0.1 | K -0.236 ± 0.1 | W -0.231 ± 0.069 | L -0.012 ± 0.059 | D 0.003 ± 0.049 | F -0.357 ± 0.1
L41: M 0.03 ± 0.074 | K -0.035 ± 0.078 | V 0.001 ± 0.045 | G -0.094 ± 0.04 | T -0.058 ± 0.076 | P -0.128 ± 0.07 | F 0.064 ± 0.087 | N -0.137 ± 0.12 | Y -0.021 ± 0.075 | I -0.324 ± 0.11 | H 0.032 ± 0.044 | W -0.114 ± 0.042 | Q 0.001 ± 0.044 | E -0.053 ± 0.071 | C -0.116 ± 0.075 | R -0.039 ± 0.037 | A 0.038 ± 0.05 | S -0.011 ± 0.055
